One block for each molecule: values may come before it. Ends that are not written are not given here. * marks the point of attachment. Dansyl = CN(C)c1cccc2c(S(=O)(=O)*)cccc12
Columns and labels:
[1] = biological target: dansyl-C3G277-296 peptide (UniProt Q13905); assay: Stopped-flow fluorescence kinetics (FRET from Trp164/Trp165 to dansyl; excitation 280 nm, 455 nm cut-off filter). kon from binding experiments, koff from separate displacement experiments, KD = koff/k; details: 10 °C, 0.5 M NaCl added to all buffers, 50 mM sodium acetate at pH 5.0 and 5.5, 50 mM Bis-Tris at pH 6.0 and 6.5, 50 mM Hepes at pH 7.0 and 7.5, 50 mM Tris-HCl
[2] = biological target: dansyl-C3G277-296 peptide (UniProt Q13905); assay: Stopped-flow fluorescence kinetics (FRET Trp to dansyl). kon from binding, koff from displacement, KD = koff/kon.; details: pH 7.0, 10 °C, Hepes 50 mM pH 7.0
[3] = biological target: dansylated C3G_(277–296) peptide; assay: stopped-flow kinetics (FRET, Trp to dansyl); variants, ionic strength series: 0.5 µM dansyl peptide mixed with N-SH3 variant (D138A 2.5-6.0 µM, E140A 3.0-5.5 µM); KD = koff/kon; 50 mM Hepes pH 7.5, 0.15 M NaCl, 10 °C
[4] = biological target: dansylated C3G_(277–296) peptide; assay: stopped-flow kinetics (FRET, Trp to dansyl); variants, ionic strength series: 0.5 µM dansyl peptide mixed with N-SH3 variant (D138A 2.5-6.0 µM, E140A 3.0-5.5 µM); KD = koff/kon; 50 mM Hepes pH 7.5, 0.05 M NaCl, 10 °C
[5] = biological target: dansylated C3G_(277–296) peptide; assay: stopped-flow kinetics (FRET, Trp to dansyl); variants, ionic strength series: 0.5 µM dansyl peptide mixed with 2.0-4.5 µM N-SH3 variant; KD = koff/kon; 50 mM Hepes pH 7.5, 0 M NaCl, 10 °C
[6] = biological target: dansylated C3G_(277–296) peptide; assay: stopped-flow kinetics (FRET, Trp to dansyl); variants, ionic strength series: 0.5 µM dansyl peptide mixed with N-SH3 variant (D138A 2.5-6.0 µM, E140A 3.0-5.0 µM); KD = koff/kon; 50 mM Hepes pH 7.5, 0.1 M NaCl, 10 °C
[7] = biological target: dansylated C3G_(277–296) peptide; assay: stopped-flow displacement kinetics; preincubated complex of D141A N-SH3 (2 µM) and dansyl-C3G (10 µM) mixed with excess nondansylated C3G (50 µM); Hepes 50 mM pH 7.0 with 20% w/v sucrose
[8] = biological target: dansylated C3G_(277–296) peptide; assay: stopped-flow kinetics (FRET, Trp to dansyl); pH series: 0.5 µM dansyl peptide mixed with 1.5-6.0 µM N-SH3; koff from displacement; Tris-HCl 50 mM pH 8.0, 0.5 M NaCl, 10 °C
[9] = biological target: dansylated C3G_(277–296) peptide; assay: stopped-flow kinetics (FRET, Trp to dansyl); pH series: 0.5 µM dansyl peptide mixed with 1.0-5.0 µM N-SH3; koff from displacement; Bis-Tris 50 mM pH 6.0, 0.5 M NaCl, 10 °C
[10] = biological target: dansylated C3G_(277–296) peptide; assay: stopped-flow kinetics (FRET, Trp to dansyl); pH series: 0.5 µM dansyl peptide mixed with 1.5-6.0 µM N-SH3; koff from displacement; Tris-HCl 50 mM pH 9.0, 0.5 M NaCl, 10 °C
[11] = biological target: dansylated C3G_(277–296) peptide; assay: stopped-flow kinetics (FRET, Trp to dansyl); ionic strength series: 0.5 µM dansyl peptide mixed with 0.5-5 µM N-SH3; koff from displacement; KD = koff/kon; Hepes 50 mM pH 7.0, 0.15 M NaCl, 10 °C
[12] = biological target: dansylated C3G_(277–296) peptide; assay: stopped-flow kinetics (FRET, Trp to dansyl); pH series: 0.5 µM dansyl peptide mixed with 1.5-6.0 µM N-SH3; koff from displacement; Tris-HCl 50 mM pH 8.5, 0.5 M NaCl, 10 °C
[13] = biological target: dansylated C3G_(277–296) peptide; assay: stopped-flow kinetics (FRET, Trp to dansyl); pH series: 0.5 µM dansyl peptide mixed with 2.0-7.0 µM N-SH3; koff from displacement; 50 mM sodium acetate pH 5.5, 0.5 M NaCl, 10 °C
[14] = biological target: dansylated C3G_(277–296) peptide; assay: stopped-flow kinetics (FRET, Trp to dansyl); ionic strength series: 0.5 µM dansyl peptide mixed with 0.5-5 µM N-SH3; koff from displacement; KD = koff/kon; Hepes 50 mM pH 7.0, 0.3 M NaCl, 10 °C
[15] = biological target: dansylated C3G_(277–296) peptide; assay: stopped-flow kinetics (FRET, Trp to dansyl); pH series: 0.5 µM dansyl peptide mixed with 1.5-6.0 µM N-SH3; koff from displacement; Hepes 50 mM pH 7.0, 0.5 M NaCl, 10 °C
[16] = biological target: dansylated C3G_(277–296) peptide; assay: stopped-flow kinetics (FRET, Trp to dansyl); ionic strength series: 0.5 µM dansyl peptide mixed with 1-5 µM N-SH3; koff from displacement with excess nondansylated peptide; KD = koff/kon; Hepes 50 mM pH 7.0, 0 M NaCl, 10 °C
[17] = biological target: dansylated C3G_(277–296) peptide; assay: stopped-flow kinetics (FRET, Trp to dansyl); pH series: 0.5 µM dansyl peptide mixed with 0.5-5.0 µM N-SH3; koff from displacement; Bis-Tris 50 mM pH 6.5, 0.5 M NaCl, 10 °C
[18] = biological target: dansylated C3G_(277–296) peptide; assay: stopped-flow kinetics (FRET, Trp to dansyl); ionic strength series: 0.5 µM dansyl peptide mixed with 0.5-5 µM N-SH3; koff from displacement; KD = koff/kon; Hepes 50 mM pH 7.0, 0.5 M NaCl, 10 °C
[19] = biological target: dansylated C3G_(277–296) peptide; assay: stopped-flow kinetics (FRET, Trp to dansyl); ionic strength series: 0.5 µM dansyl peptide mixed with 0.5-5 µM N-SH3; koff from displacement; KD = koff/kon; Hepes 50 mM pH 7.0, 1 M NaCl, 10 °C
[20] = biological target: dansylated C3G_(277–296) peptide; assay: stopped-flow kinetics (FRET, Trp to dansyl); pH series: 0.5 µM dansyl peptide mixed with 4.0-8.0 µM N-SH3; koff from displacement; 50 mM sodium acetate pH 5.0, 0.5 M NaCl, 10 °C
[21] = biological target: dansylated C3G_(277–296) peptide; assay: stopped-flow kinetics (FRET, Trp to dansyl); pH series: 0.5 µM dansyl peptide mixed with 0.5-5.0 µM N-SH3; koff from displacement; Hepes 50 mM pH 7.5, 0.5 M NaCl, 10 °C
[22] = biological target: N-SH3 domain of Crkl, D141A variant; assay: other fluorescence titration; equilibrium: 1 µM N-SH3 D141A constant, increasing dansyl-C3G; quenching of Trp fluorescence at 350 nm (excitation 280 nm); hyperbolic fit; 50 mM Hepes pH 7.0, 10 °C

Molecule: Crkl N-terminal SH3 domain (N-SH3), wild type
koff ([1]; pH 5.0): 257 s⁻¹
kon ([1]; pH 5.0): 44 µM⁻¹ s⁻¹
koff ([1]; pH 5.5): 81 s⁻¹
kon ([1]; pH 5.5): 37 µM⁻¹ s⁻¹
koff ([1]; pH 6.0): 78 s⁻¹
kon ([1]; pH 6.0): 15 µM⁻¹ s⁻¹
koff ([1]; pH 6.5): 65 s⁻¹
kon ([1]; pH 6.5): 65 µM⁻¹ s⁻¹
koff ([1]; pH 7.0): 42 s⁻¹
kon ([1]; pH 7.0): 52 µM⁻¹ s⁻¹
koff ([1]; pH 7.5): 34 s⁻¹
kon ([1]; pH 7.5): 51 µM⁻¹ s⁻¹
koff ([1]; pH 8.0): 46 s⁻¹
kon ([1]; pH 8.0): 56 µM⁻¹ s⁻¹
koff ([1]; pH 8.5): 40 s⁻¹
kon ([1]; pH 8.5): 68 µM⁻¹ s⁻¹
koff ([1]; pH 9.0): 39 s⁻¹
kon ([1]; pH 9.0): 39 µM⁻¹ s⁻¹
koff ([2]; 0 M NaCl added): 12 s⁻¹
kon ([2]; 0 M NaCl added): 130 µM⁻¹ s⁻¹
koff ([2]; 0.15 M NaCl): 23 s⁻¹
kon ([2]; 0.15 M NaCl): 96 µM⁻¹ s⁻¹
koff ([2]; 0.3 M NaCl): 32 s⁻¹
kon ([2]; 0.3 M NaCl): 83 µM⁻¹ s⁻¹
koff ([2]; 0.5 M NaCl): 34 s⁻¹
kon ([2]; 0.5 M NaCl): 51 µM⁻¹ s⁻¹
koff ([2]; 1.0 M NaCl): 51 s⁻¹
kon ([2]; 1.0 M NaCl): 68 µM⁻¹ s⁻¹

Molecule: N-SH3 domain of Crkl, D138A variant (domain or fragment)
Kd [3]: 22 µM
koff [3]: 254 s⁻¹
kon [3]: 1.2e+07 M⁻¹ s⁻¹
Kd [4]: 2.6 µM
koff [4]: 212 s⁻¹
kon [4]: 8.1e+07 M⁻¹ s⁻¹
Kd [5]: 900 nM
koff [5]: 139 s⁻¹
kon [5]: 1.58e+08 M⁻¹ s⁻¹
Kd [6]: 3.8 µM
koff [6]: 183 s⁻¹
kon [6]: 4.8e+07 M⁻¹ s⁻¹

Molecule: Dansyl-VVDNSPPPALPPKKRQSAPS [dansylated C3G_(277–296) peptide]
Kd [22]: 1070 nM

Next, values leading:

koff [7]: 800 s⁻¹
Molecule: N-SH3 domain of Crkl, D141A variant (domain or fragment)

Kd [3]: 4.2 µM
koff [3]: 339 s⁻¹
kon [3]: 8.1e+07 M⁻¹ s⁻¹
Kd [4]: 3.7 µM
koff [4]: 330 s⁻¹
kon [4]: 8.9e+07 M⁻¹ s⁻¹
Kd [5]: 3300 nM
koff [5]: 254 s⁻¹
kon [5]: 7.8e+07 M⁻¹ s⁻¹
Kd [6]: 3.9 µM
koff [6]: 302 s⁻¹
kon [6]: 7.7e+07 M⁻¹ s⁻¹
Molecule: N-SH3 domain of Crkl, E140A variant (domain or fragment)

Kd [8]: 800 nM
koff [8]: 46 s⁻¹
kon [8]: 5.6e+07 M⁻¹ s⁻¹
Kd [9]: 5.4 µM
koff [9]: 78 s⁻¹
kon [9]: 1.5e+07 M⁻¹ s⁻¹
Kd [10]: 1000 nM
koff [10]: 39 s⁻¹
kon [10]: 3.9e+07 M⁻¹ s⁻¹
Kd [11]: 240 nM
koff [11]: 23 s⁻¹
kon [11]: 9.6e+07 M⁻¹ s⁻¹
Kd [12]: 600 nM
koff [12]: 40 s⁻¹
kon [12]: 6.8e+07 M⁻¹ s⁻¹
Kd [13]: 2200 nM
koff [13]: 81 s⁻¹
kon [13]: 3.7e+07 M⁻¹ s⁻¹
Kd [14]: 390 nM
koff [14]: 32 s⁻¹
kon [14]: 8.3e+07 M⁻¹ s⁻¹
Kd [15]: 800 nM
koff [15]: 42 s⁻¹
kon [15]: 5.2e+07 M⁻¹ s⁻¹
Kd [16]: 90 nM
koff [16]: 12 s⁻¹
kon [16]: 1.3e+08 M⁻¹ s⁻¹
Kd [17]: 1000 nM
koff [17]: 65 s⁻¹
kon [17]: 6.5e+07 M⁻¹ s⁻¹
Kd [18]: 660 nM
koff [18]: 34 s⁻¹
kon [18]: 5.1e+07 M⁻¹ s⁻¹
Kd [19]: 750 nM
koff [19]: 51 s⁻¹
kon [19]: 6.8e+07 M⁻¹ s⁻¹
Kd [20]: 5.9 µM
koff [20]: 257 s⁻¹
kon [20]: 4.4e+07 M⁻¹ s⁻¹
Kd [21]: 700 nM
koff [21]: 34 s⁻¹
kon [21]: 5.1e+07 M⁻¹ s⁻¹
Molecule: N-terminal SH3 domain of Crkl, wild type (domain or fragment)

— PMC8705818, “Experimental Characterization of the Interaction between the N-Terminal SH3 Domain of Crkl and C3G” (International Journal of Molecular Sciences, 2021)
